In assay [1] the target is T1, extracellular domain of human L1CAM (isoform 1) fused to a poly-histidine tag via its carboxy terminus (human, UniProt P32004 20-1120).
T1 construct: Bought (Creative Biomart); also called L1CAM-His; huL1CAM protein
Briefly: BLI (Octet Red96e), His-tagged human L1CAM on Ni-NTA biosensors, mAb as analyte, 1:1 fit. As to the method:
(§1) Binding to L1CAM in Solution. Affinity to human L1CAM was measured by BLI using an Octet Red96e instrument. […] The data was prepared by reference well subtraction, and response curves were globally fit to a 1:1 Langmuir binding model.
For orientation: BLI is a label-free optical method that tracks binding on a fibre tip over time.

Assay [2] deals with T2, human L1CAM on cells (human, UniProt P32004 20-1257).
T2 construct: Overexpressed on stably transfected HEK293T cells or endogenous on MCF-7 and MDA-MB-231 cells; also called HEK293T-hL1CAM
T2 sequence (P32004 20-1257): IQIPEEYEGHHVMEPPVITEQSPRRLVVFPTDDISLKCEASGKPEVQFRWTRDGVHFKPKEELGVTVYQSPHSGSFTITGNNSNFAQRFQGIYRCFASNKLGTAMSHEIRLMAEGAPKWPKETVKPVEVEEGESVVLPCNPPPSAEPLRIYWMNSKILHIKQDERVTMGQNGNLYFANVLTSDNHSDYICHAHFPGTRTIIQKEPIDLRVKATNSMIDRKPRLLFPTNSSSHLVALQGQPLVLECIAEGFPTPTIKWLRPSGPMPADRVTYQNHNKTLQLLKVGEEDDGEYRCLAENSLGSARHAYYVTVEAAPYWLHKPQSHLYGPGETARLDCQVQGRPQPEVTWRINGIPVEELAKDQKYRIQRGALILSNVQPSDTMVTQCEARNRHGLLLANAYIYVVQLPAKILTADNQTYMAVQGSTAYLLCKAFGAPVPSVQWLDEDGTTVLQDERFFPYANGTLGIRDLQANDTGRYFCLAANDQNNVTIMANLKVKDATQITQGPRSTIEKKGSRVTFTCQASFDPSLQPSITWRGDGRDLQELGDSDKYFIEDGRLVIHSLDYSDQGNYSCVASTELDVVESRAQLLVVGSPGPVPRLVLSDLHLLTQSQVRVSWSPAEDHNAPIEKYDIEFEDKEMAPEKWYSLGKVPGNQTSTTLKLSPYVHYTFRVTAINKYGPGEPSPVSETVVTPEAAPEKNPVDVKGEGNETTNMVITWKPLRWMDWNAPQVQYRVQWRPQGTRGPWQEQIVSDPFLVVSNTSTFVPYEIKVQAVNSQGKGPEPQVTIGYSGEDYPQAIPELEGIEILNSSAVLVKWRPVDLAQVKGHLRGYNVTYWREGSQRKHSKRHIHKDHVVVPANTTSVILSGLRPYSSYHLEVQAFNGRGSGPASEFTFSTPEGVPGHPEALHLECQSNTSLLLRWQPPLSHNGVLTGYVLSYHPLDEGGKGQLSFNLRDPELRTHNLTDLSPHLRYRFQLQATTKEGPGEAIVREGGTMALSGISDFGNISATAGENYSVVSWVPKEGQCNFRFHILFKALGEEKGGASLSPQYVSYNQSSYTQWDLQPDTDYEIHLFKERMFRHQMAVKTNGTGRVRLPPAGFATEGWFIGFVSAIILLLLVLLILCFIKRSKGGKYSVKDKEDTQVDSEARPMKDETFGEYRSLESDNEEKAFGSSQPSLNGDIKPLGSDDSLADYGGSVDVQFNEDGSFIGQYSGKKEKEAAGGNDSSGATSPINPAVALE
The assay can be described thus: summary table; binding to cells overexpressing human L1CAM (HEK293T). As to the method:
(§2) Binding to L1CAM on Cells. […] Cells were then incubated with an AlexaFluor 647 goat anti-human Fc secondary antibody. After washing, the stained cells were analyzed by flow cytometry.
(§3) The binding curves for each antibody and cell line normalized to secondary antibody only staining (MFI ratio) are shown in FIGS. 14A-14C. EC50 values were determined by non-linear regression (Table 70). […] It is possible that differences in the conformation and oligomerization of L1CAM, depending on the surface expression level, contributed to the binding pattern. […] An avidity effect due to high levels of L1CAM surface expression may have contributed to the strong binding observed in this experiment.

Assay [3] concerns the target T3, mouse L1CAM on transiently transfected HEK293FT cells (mouse, UniProt P11627 20-1260).
T3 construct: whole, on cells; also called mouse L1CAM on cells
Briefly: flow cytometry, cells transfected with mouse L1CAM.

Assay [4] concerns the target T4, human CHL-1 (residues 25-1096 with a C-terminal 10xHis tag) (human, UniProt O00533 25-1096).
T4 construct: range 25-1096; also called L1CAM-2; L1CAM2
T4 sequence: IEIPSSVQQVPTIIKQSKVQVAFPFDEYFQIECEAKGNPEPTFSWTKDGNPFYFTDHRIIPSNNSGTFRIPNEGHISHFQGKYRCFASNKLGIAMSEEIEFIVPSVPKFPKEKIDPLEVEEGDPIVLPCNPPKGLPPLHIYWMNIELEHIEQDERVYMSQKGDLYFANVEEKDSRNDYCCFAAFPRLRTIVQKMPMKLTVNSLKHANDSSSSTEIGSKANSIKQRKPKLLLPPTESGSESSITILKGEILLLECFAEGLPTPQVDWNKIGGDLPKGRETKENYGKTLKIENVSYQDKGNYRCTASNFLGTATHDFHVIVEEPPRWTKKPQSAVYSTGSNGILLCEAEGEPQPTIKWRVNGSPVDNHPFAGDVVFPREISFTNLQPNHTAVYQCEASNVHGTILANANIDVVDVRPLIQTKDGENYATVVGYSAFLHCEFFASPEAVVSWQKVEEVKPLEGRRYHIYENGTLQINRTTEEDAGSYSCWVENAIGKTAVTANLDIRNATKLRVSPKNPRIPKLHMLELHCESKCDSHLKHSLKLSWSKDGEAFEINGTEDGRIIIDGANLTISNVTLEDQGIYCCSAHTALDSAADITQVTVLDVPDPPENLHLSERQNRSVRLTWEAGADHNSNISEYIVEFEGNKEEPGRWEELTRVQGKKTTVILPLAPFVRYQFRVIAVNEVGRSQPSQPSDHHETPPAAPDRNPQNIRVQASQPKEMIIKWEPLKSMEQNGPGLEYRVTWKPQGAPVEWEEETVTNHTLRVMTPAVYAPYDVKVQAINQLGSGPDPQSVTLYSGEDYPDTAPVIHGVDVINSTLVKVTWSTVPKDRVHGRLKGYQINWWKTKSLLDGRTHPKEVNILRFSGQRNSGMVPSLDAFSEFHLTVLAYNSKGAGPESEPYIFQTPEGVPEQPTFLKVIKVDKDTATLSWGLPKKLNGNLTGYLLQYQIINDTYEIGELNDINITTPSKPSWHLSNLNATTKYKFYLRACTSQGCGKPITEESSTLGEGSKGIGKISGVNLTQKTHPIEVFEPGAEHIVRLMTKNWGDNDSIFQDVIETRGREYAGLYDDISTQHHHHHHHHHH
Briefly: ELISA, plates coated with human CHL-1. The text has this:
Selectivity. […] These proteins are other members of the L1 family of cell adhesion proteins and have between 49% and 55% sequence similarity with L1CAM in the extracellular portion. […] Positive control antibodies were included for each homolog. […] Epitope. The extracellular portion of L1CAM contains six immunoglobulin-like (Ig) domains and five fibronectin type III (FN) domains. To narrow down the binding region of the development candidate mAbs, truncated versions of human L1CAM protein (Ig domain, residues 21-605; FN domain, residues 606-1116; each with a C-terminal 6×His tag) were recombinantly produced, followed by a BLI experiment to test binding at 50 and 100 nM. […] 6×His tag is set forth in SEQ ID NO: 316.
For orientation: In an ELISA, binding on a coated surface is turned into a signal by an enzyme label.

Assay [5] has as its target T5, soluble cynomolgus monkey L1CAM, His-tagged, monomeric (cynomolgus monkey, UniProt A0A2K5URB5 20-1120).
T5 construct: also called cyL1CAM protein; cynomolgus L1CAM-His
Briefly: summary table; soluble cynomolgus monkey L1CAM (monomer). As to the method: (§4) Cross-reactivity to Cynomolgus Monkey L1CAM. Affinity to cynomolgus L1CAM was measured by BLI using an Octet Red96e instrument. […] The data was prepared by reference well subtraction, and response curves were globally fit to a 1:1 Langmuir binding model.

Assay [6] has as its target T6, soluble mouse L1CAM (monomer), His-tagged (mouse, UniProt P11627 20-1123, limits assumed).
T6 construct: read as mouse
Briefly: BLI (Octet Red96e), His-tagged L1CAM on Ni-NTA biosensors, mAb as analyte. As for the experimental part:
Cross-reactivity to Mouse L1CAM. Affinity to mouse L1CAM was measured by BLI using an Octet Red96e instrument. […] The data was prepared by reference well subtraction, and response curves were globally fit to a 1:1 Langmuir binding model.

In assay [7] the target is T2, human L1CAM on cells. The assay can be described thus: summary table; binding to cells with endogenous L1CAM (MDA-MB-231). As to the method:
as §2, §3

For assay [8], the target named is T1, extracellular domain of human L1CAM …. Briefly: summary table; binding to soluble human L1CAM (monomer). As to the method: as §1
Assay [9] deals with T2, human L1CAM on cells. Briefly: flow cytometry, MDA-MB-231 cells, AlexaFluor 647 anti-human Fc secondary. As to the method:
as §2, §3
A general note: A flow cytometer gives signals particle by particle.

In assay [10] the target is T2, human L1CAM on cells. The assay can be described thus: flow cytometry, HEK293T-hL1CAM cells, AlexaFluor 647 anti-human Fc secondary. As for the experimental part: as §2, §3
For assay [11], the target named is T2, human L1CAM on cells. Briefly: flow cytometry, MCF-7 cells, AlexaFluor 647 anti-human Fc secondary. As for the experimental part: as §2, §3
Assay [12] addresses T2, human L1CAM on cells. The assay can be described thus: summary table; binding to cells with endogenous L1CAM (MCF-7). As to the method:
as §2, §3

Assay [13] deals with T1, extracellular domain of human L1CAM …. Briefly: BLI, His-tagged human L1CAM. As to the method:
as §1

Assay [14] has as its target T5, soluble cynomolgus monkey L1CAM, …. Briefly: BLI, cynomolgus against human L1CAM-His. As to the method: as §4
Assay [15] shares this target. Briefly: BLI (Octet Red96e), His-tagged cynomolgus L1CAM on Ni-NTA biosensors, mAb as analyte, 1:1 fit. As to the method:
as §4

The values that follow come from patent US20250340636A1 (Memorial Sloan Kettering, published 2025).

T1 sequence (P32004 20-1120): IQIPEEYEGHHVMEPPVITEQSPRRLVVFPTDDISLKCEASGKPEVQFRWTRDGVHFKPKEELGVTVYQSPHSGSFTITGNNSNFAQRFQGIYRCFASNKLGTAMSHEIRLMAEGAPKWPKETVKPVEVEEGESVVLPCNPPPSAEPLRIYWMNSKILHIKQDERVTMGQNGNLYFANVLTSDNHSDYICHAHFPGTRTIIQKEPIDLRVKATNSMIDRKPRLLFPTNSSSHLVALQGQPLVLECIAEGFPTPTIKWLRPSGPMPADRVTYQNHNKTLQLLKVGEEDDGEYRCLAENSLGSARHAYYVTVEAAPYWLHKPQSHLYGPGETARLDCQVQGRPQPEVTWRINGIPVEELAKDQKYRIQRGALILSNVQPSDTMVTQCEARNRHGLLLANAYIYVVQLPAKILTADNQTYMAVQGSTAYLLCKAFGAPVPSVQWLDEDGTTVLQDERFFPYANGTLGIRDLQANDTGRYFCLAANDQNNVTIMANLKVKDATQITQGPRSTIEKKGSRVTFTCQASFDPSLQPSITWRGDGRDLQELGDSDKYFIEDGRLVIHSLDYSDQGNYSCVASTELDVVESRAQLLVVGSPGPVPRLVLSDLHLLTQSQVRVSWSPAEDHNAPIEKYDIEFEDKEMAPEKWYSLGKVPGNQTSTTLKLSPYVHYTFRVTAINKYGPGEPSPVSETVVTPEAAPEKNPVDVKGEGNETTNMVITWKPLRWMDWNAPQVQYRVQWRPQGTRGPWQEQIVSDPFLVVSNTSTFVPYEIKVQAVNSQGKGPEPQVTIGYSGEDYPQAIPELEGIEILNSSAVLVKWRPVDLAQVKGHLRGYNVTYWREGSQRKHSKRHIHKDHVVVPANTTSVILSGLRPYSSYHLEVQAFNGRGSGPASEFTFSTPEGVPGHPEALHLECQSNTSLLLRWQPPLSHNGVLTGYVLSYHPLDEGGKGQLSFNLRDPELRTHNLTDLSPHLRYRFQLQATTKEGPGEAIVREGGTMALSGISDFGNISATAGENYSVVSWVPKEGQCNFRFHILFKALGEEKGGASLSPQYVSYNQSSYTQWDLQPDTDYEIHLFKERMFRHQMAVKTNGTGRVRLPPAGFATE
T6 sequence (P11627 20-1123 limits assumed): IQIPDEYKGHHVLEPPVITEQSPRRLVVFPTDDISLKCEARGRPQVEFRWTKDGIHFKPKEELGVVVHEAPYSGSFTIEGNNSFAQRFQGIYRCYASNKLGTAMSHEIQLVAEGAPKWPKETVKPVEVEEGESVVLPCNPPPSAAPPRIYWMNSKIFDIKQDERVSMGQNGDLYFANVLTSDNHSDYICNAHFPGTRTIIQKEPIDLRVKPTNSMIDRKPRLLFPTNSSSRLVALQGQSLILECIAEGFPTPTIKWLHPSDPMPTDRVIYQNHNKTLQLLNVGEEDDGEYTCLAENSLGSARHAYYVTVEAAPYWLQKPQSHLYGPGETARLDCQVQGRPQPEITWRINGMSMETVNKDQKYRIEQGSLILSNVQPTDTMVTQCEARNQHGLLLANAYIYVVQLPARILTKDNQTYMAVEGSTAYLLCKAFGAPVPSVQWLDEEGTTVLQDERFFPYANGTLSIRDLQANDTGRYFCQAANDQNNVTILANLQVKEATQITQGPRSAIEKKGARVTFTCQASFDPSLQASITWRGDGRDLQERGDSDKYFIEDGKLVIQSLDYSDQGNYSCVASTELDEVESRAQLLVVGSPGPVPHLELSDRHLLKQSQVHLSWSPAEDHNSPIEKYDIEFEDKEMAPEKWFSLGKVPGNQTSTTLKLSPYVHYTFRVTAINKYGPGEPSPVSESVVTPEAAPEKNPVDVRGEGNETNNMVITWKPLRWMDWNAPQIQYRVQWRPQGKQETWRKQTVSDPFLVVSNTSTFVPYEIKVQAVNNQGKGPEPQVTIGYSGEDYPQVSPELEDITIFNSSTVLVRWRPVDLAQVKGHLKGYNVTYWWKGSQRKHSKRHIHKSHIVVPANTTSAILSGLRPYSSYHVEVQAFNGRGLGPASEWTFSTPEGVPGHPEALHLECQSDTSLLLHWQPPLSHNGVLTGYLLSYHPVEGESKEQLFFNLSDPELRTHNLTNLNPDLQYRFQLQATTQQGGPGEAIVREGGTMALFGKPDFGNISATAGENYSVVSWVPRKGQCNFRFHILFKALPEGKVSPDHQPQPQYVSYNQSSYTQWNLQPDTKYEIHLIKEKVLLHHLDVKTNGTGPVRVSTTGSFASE
T3 sequence (P11627 20-1260): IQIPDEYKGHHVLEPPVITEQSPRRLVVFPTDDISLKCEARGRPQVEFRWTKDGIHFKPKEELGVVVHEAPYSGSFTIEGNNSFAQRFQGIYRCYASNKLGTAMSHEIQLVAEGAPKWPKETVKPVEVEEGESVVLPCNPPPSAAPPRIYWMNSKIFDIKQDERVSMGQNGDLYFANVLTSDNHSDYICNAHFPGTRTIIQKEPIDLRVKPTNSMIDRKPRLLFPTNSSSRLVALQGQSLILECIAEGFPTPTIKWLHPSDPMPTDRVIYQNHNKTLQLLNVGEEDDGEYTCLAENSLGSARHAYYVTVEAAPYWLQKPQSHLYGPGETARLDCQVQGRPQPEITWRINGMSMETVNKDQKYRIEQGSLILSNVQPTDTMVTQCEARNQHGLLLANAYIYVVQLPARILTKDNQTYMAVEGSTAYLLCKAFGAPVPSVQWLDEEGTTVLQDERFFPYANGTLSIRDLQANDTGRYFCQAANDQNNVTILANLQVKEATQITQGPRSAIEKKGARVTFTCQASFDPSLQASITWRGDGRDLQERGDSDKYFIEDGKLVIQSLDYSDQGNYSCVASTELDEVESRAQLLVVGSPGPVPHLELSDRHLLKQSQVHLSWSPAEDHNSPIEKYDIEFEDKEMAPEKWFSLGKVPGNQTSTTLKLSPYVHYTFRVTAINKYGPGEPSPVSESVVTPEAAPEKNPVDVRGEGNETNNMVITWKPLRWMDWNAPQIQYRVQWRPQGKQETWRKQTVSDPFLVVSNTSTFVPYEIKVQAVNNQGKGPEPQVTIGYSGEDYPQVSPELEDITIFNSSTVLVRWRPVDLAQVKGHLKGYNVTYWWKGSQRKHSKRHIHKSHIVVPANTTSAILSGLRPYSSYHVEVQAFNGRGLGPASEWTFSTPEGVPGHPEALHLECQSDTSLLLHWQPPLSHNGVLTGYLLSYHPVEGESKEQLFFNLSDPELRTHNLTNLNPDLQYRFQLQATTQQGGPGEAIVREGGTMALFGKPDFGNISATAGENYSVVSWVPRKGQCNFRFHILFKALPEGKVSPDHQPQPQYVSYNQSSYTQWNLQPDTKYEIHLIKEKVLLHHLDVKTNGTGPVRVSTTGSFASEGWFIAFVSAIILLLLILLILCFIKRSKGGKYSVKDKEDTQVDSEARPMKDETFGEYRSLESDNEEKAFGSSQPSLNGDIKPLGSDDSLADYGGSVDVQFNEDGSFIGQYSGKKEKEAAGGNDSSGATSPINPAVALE

B1: TDI-Y-004 (antibody, human IgG1, kappa, V domains shown)
VH: QVQLVQSGAEVKKPGSSVKVSCKASGYTFTNYYIHWVRQAPGQGLEWMGKIGPGSGSPYYQGMFKDRVTITADESTSTAYMELSSLRSEDTAVYYCARWLLPFDYWGQGTLVTVSS
VL: EIVLTQSPGTLSLSPGERATLSCRASSSVNYMHWYQQKPGQAPRLLIYATSILASGIPDRFSGSGSGTDYTLTISRLEPEDFAVYYCQQFSSDPLTFGGGTKVEIKR
notes: Human IgG1, kappa; also called humanized 143G03 (N61Q) mAb; hz143G03 (N61Q)
A word on the Kd: it is a measure of binding affinity in units of concentration. As usually defined, the koff is the first-order rate constant of dissociation. By kon is commonly meant the rate constant with which the complex forms. Broadly, the EC50 is the midpoint of the concentration-response curve. Take B1: the dissociation constant (Kd) in assay [1] amounted to 0.35 nM; in [5], 0.3 nM; in assay [8] it was 0.35 nM; in assay [15], 0.3 nM. Moreover, the koff in assay [1] came out at 9.5e-05 s⁻¹; in assay [5], 4.7e-05 s⁻¹; in assay [8] it was 9.5e-05 s⁻¹; in assay [15], 4.7e-05 s⁻¹. In addition, the kon in assay [1] is 270000 M⁻¹ s⁻¹; in [5] it was 160000 M⁻¹ s⁻¹; in [8] it was 270000 M⁻¹ s⁻¹; in [15] it was 160000 M⁻¹ s⁻¹. Further, the concentration for a half-maximal effect (EC50) in the assay with human L1CAM on cells [2] is 2.2 nM; with human L1CAM on cells [7] it was 2.5 nM; in the assay with human L1CAM on cells [9] it was 2.5 nM; in the assay with human L1CAM on cells [10], 2.2 nM; with human L1CAM on cells [11], 1.3 nM; in the assay with human L1CAM on cells [12] it was 1.3 nM. Besides, the values for the binding result in assay [3], in assay [4] and in assay [6] were “no binding”, “no binding (tested: 1 µM)” and “no binding (tested: dilution series starting at 50 nM)”, respectively. In addition, in [13], the “fold difference in KD against TDI-Y-005” value was roughly 10 fold. The “fold difference of KD against human L1CAM” value in assay [14] is no more than 1.2 fold.
